Measured values as given in US20240173424A1, “ANTI-NECTIN-4-ANTIBODY EXATECAN CONJUGATES” (EMERGENCE THERAPEUTICS AG, priority 2021, published 2024).

How the values were obtained:
Type in all cases: binding
human Nectin-4 [1] = test: Flow cytometry of MDA-MB231 transfected with Flag-tagged Nectin-4; details: MDA-MB231 transfected with Nectin-4, 0.3 ng/ml-5 μg/mL
Method: Detection by flow cytometry. • Flow cytometry analysis of MDA-MB231 transfected with the N-terminal Flag-tagged epitope of Nectin-4 using a dose range (0.3 ng/ml-5 μg/mL) of Ch-15A7.5 or Ch-5A12.2 antibodies Parental MDA-MB231 cells are included as controls. Cells were then stained with phycoerythrin conjugate goat anti human Fc antibody. The normalized mean fluorescence intensity is shown. Inlay: staining of parental MDA-MB231 cells with anti Nectin-1, -2 and -3 mAbs ([…]). Mean fluorescence intensity is represented.
Human breast carcinoma cell line MDA-MB231 (ATCC, Manassas, VA) was cultured in DMEM supplemented with 10% fetal bovine serum, 50 IU/mL penicillin, 50 μg/mL streptomycin and 2 mM glutamine. The cells were transfected with expression vector p3XFLR4.C1 containing a PVRL4 cDNA. Human triple negative breast cancer cell line SUM190PT (BioIVT, Westbury, NY) was cultures in Ham's F12 medium with 5% fetal bovine serum, 1% non-essential amino acids, 1% Hepes, 1% insulin, 1 μg/mL hydrocortisone, 6.8 ng/ml Triiodo L-tyrosine, 100 IU/mL penicillin, 100 μg/mL streptomycin and 2 mM glutamine. Chinese hamster ovary CHO cell line was cultured in DMEM supplemented with 10% fetal bovine serum, 100 IU/mL penicillin, 100 μg/mL streptomycin and 2 mM glutamine. […]

human Nectin-4 [2] = test: ELISA on coated Nectin-4 Fc fusion proteins (Nec4-VCC, Nec4-V); details: ELISA
Method: (§1) Detection by ELISA. • Ninety-six-wells plates were coated, as indicated, with 5 μg/mL Nectin-1 extracellular domain Fc fusion recombinant protein (Nec1-VCC), or Nectin-4 IgV-like domain Fc fusion recombinant protein (Nec4-V), or Nectin-4 extracellular domain Fc fusion recombinant protein (Nec4-VCC) overnight at 4° ° C.
FIG. 3: Characterization of Ch-15A7.5 epitope. Competition assay was performed by ELISA. • Ninety-six-wells plates were coated with 5 μg/mL of Nectin-4 extracellular domain Fc fusion recombinant protein (Nec4-VCC) overnight at 4° C. Binding of peroxidase-conjugated Ch-15A7.5 mAb (5 μg/mL) was measured in presence of increasing concentrations (2.75 ng/ml-6 μg/mL) of Rituximab, Ch-15A7 mAb, Enfortumab (HA22), Ch-N41 mAb and Ch-14A5 mAb.
(§2) A sandwich enzyme-linked immunosorbent assay was used to control specificity of Ch-15A7.5 antibody and to perform competition assays between different mAbs. Ninety-six-wells plates were coated with 10 nM of Nectin-4-VCC-Fc, Nectin-1-VCC-Fc (entire extracellular part) or Nectin-4-V-Fc (comprising only the IgV domain) overnight at +4° C. After washes and saturation with PBS 1% BSA, cells were incubated for 2 hours at 25° C. with 10 nM of peroxidase-conjugated Ch-15A7.5 mAb. In the case of competition, binding of 0.5 nM of peroxidase conjugated Ch-15A7.5 mAb was measured in the presence of variable concentration (0.018 nM to 40 nM) of “cold” mAb. One hundred μL of peroxidase substrate was added (One Step ABST, Pierce), and OD was red at 405 nm.

[3] = target: T1, Nectin-4 expressed by normal differentiated human keratinocytes (NHEK) (Homo sapiens, UniProt Q96NY8); test: Flow cytometry on normal differentiated human keratinocytes (NHEK); details: dose range 8 PM-33 nM
T1 construct: Cells or cell lines (10,000-50,000) expressing Nectin-4 (naturally or transfected); endogenous in cells; host or cells: NHEK, differentiated with 0.1 mM CaCl2
T1 sequence (Q96NY8 32-510): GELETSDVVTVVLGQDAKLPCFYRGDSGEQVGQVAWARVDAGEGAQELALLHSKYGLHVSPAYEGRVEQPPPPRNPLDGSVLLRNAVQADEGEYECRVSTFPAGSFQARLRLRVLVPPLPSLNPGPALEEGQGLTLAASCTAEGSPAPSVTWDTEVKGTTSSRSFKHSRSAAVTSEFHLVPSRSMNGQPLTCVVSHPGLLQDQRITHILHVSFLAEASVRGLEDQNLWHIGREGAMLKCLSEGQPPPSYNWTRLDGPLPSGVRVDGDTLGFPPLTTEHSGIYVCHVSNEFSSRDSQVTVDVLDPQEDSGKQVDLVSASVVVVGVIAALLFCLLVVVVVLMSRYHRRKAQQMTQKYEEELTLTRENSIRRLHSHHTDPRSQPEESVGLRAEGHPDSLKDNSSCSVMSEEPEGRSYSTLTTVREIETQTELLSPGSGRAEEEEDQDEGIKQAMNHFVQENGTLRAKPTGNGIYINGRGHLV
Method: FIG. 15: Differential binding of Ch-15A7.5 and its humanized variants to Nectin-4 expressed by tumor cell line and normal differentiated human keratinocytes. Detection by flow cytometry.
Flow cytometry analysis of TNBC cell line (SUM190, upper panels) and normal differentiated (0.1 mM CaCl2) human keratinocytes (NHEK, lower panels) using a dose range (8 PM-33 nM) of Ch-5A12.2, Ch-15A7.5 and its humanized variants 15A7.5-H1L2, -H1L3, -H2L2, -H2L3, -H3LO, -H3L2, -H3L3. Cells were then stained with phycoerythrin conjugate goat anti human Fc antibody. Normalized mean fluorescence intensities are shown. Non-linear curve fitting (4 parameters) was done with GraphPad Prism 9 software.
Cells or cell lines (10,000-50,000) expressing Nectin-4 (naturally or transfected) were incubated with dose range of the indicated antibodies. After washing, cells were then stained with phycoerythrin-conjugated goat anti human antibody (5 μg/mL) Jackson Immuno Research). After fixation, cells were stained with a viability dye (e780, Invitrogen) before flow cytometry acquisition.

[4] = target: T2, Nectin-1 extracellular domain (Homo sapiens, UniProt Q15223); test: ELISA on coated Nectin-1 extracellular domain Fc fusion protein (Nec1-VCC)
T2 construct: Nectin-1 extracellular domain Fc fusion recombinant protein (Nec1-VCC)
T2 sequence (Q15223 31-355 limits assumed): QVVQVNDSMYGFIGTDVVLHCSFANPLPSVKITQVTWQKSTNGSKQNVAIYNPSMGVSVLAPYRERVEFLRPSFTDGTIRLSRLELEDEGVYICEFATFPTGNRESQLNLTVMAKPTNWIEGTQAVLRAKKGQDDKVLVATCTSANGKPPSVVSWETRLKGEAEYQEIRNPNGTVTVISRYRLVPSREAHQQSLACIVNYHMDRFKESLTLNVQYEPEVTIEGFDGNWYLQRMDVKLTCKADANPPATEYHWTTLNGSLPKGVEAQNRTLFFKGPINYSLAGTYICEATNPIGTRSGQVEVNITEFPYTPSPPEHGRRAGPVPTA
Method: as §1, §2

apparent EC50 towards keratinocytes in comparison to that of Ch-5A12.2 [3]: much lower apparent EC50 | recognition of Nectin-1 extracellular domain [4]: not the Nectin-1 extracellular domain
B1: Ch-15A7.5: chimeric antibody of 15A7.5 with Fc-silent human Fc (antibody, V domains shown)
VH: EVKLVESGGGLVQPGGSRKLSCAASGFTFSNYGMAWVRQAPGKGPEWVAFISNLAYGINYADTVTGRFTISRENAKNTLYLEMRSLRSEDTAMYYCARGARATGWFAYWGQGTLVTVSA
VL: DIVMTQSQKFMSTSIGDRVSVTCKASQNVDTHVAWYQEKPGQSPKALIYSASYRYSGVPDRFTGSGSGTDFTLTISNVQSEDLADYFCQQYNSYPLTFGGGTKLEIK
recognition of human Nectin-4 (human Nectin-4 [1]): recognize human Nectin-4 | recognition of Nectin-4 IgV-like domain (human Nectin-4 [2]; Nec4-V coated): recognizes IgV-like domain of human Nectin-4 | recognition of Nectin-4 extracellular domain (human Nectin-4 [2]; Nec4-VCC coated): recognizes the Nectin-4 extracellular domain
